As usually defined, the Kd is the constant that tells how readily two partners part at equilibrium.

Assay [1] concerns the target T1, human inducible phospho-fructokinase bisphosphatase isoform 3, PFKFB3 (human, UniProt Q16875 1-520, RED-NHS label).
T1 construct: human PFKFB3 (inducible bifunctional enzyme), GenBank AF056320.1; Plasmid from Prof; Yong-Hwan Lee; also called 6-Phosphofructo-2-kinase/fructose-2,6-biphosphatase 3; human inducible bifunctional enzyme; not shown: His tag, N-terminal, cleaved
Briefly: MST; Nanotemper microscale thermophoresis; compound in MST buffer mixed 1:1 with 100 nM RED-NHS labeled recombinant PFKFB3, incubated 20 min at room temperature. The following applies: both partners purified.

Assay [2] deals with T1, human inducible phospho-fructokinase …. The assay is described as above. The following applies: both partners purified. The source holds these as a separate data set.

Square brackets hold non-standard residues; d marks the D form. Ends that are not written are not given here.

T1 sequence (Q16875 whole entry, canonical isoform): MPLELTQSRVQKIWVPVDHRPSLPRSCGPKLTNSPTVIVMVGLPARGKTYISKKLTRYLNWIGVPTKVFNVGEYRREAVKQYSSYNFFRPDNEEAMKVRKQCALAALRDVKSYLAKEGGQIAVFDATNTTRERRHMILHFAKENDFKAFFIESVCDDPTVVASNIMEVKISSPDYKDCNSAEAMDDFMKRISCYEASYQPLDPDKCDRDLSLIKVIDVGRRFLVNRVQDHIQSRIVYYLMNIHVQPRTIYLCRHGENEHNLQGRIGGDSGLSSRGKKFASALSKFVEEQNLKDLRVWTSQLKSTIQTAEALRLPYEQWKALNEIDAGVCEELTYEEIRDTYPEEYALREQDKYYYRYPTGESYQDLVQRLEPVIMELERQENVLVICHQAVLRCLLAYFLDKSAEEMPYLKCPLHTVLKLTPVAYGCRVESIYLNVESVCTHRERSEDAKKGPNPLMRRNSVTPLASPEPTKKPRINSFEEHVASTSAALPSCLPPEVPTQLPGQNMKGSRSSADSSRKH

B1: peptide 4 (YSGFLT) (peptide)
peptide: YSGFLT
notes: printed as YSGFLT; picked by virtual screening of ZINC libraries; also called compound 4; source: synthetic peptide
On to B1, for which, in assay [1], the Kd was 18.3 µM.

B2: peptide 5 (SFLLR-CONH2) (peptide)
peptide: SFLLR-NH2
notes: printed as SFLLR-CONH2; picked by virtual screening of ZINC libraries; also called compound 5; source: synthetic peptide
Turning to B2, the Kd in assay [1] was determined as 44.4 µM. On to [dW]-Gly-[dY] [peptide 6 (wGy)], for which, in assay [2], the Kd was found to be 2.79 µM.

For the origin of these results see publication PMC6937325, “Tuning PFKFB3 Bisphosphatase Activity Through Allosteric Interference” (Scientific Reports, 2019).
